Data on one sequence can be found in PMC9765439, “Systems-Wide Dissection of Organic Acid Assimilation in Pseudomonas aeruginosa Reveals a Novel Path To Underground Metabolism” (mBio, 2022).

The data set has as its system T1, PrpR (His6-PrpR) (Pseudomonas aeruginosa PAO1?), ORF:9118ca87.
T1 sequence: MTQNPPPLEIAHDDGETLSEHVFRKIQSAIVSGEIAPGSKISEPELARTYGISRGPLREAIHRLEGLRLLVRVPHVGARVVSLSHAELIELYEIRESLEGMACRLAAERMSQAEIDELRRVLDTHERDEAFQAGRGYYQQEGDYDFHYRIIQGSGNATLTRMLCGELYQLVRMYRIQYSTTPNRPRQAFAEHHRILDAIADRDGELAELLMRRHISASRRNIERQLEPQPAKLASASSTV
In words: EMSA. The following applies: 30 mM Tris-HCl pH 8.0, 120 mM KCl, 1 mM MnCl2, 1 mM MgCl2, 20% glycerol, 240 ug/mL BSA, 15.2 ug/mL poly(dI-dC), 21 C, 60 min; 6% PAGE in TBE.

With “CTGCTTCATCACGTCGCCCATGCCGCAGGCGAAGTCGATCAGGCGCGGCAACACGTAACGGTCATAGATGCCCACGAAACTCTCTCCTGGCACAGCGGCTGGAGGGGAAAGCATAGACCAGCGATGCATTAGACGATTGTCGACAATCAAGCGACGAATGATTGACCCCACGCAATCCAGGCGGTAGCTTTCGCAAACATTGTCGACACATCGACCCGGACAGCCAGTACCATGACCCAGAACCCGCCCCCTCTCGAGATTGCCCATGAC (double strand) [prpR promoter (prpRp)]”, the binding result is “binds”.
